Sequences and labels used below:
T1: His-MBP-Cdc5 T238D (S. cerevisiae, UniProt P32562 1-705, T238D)
T1 sequence (looked up): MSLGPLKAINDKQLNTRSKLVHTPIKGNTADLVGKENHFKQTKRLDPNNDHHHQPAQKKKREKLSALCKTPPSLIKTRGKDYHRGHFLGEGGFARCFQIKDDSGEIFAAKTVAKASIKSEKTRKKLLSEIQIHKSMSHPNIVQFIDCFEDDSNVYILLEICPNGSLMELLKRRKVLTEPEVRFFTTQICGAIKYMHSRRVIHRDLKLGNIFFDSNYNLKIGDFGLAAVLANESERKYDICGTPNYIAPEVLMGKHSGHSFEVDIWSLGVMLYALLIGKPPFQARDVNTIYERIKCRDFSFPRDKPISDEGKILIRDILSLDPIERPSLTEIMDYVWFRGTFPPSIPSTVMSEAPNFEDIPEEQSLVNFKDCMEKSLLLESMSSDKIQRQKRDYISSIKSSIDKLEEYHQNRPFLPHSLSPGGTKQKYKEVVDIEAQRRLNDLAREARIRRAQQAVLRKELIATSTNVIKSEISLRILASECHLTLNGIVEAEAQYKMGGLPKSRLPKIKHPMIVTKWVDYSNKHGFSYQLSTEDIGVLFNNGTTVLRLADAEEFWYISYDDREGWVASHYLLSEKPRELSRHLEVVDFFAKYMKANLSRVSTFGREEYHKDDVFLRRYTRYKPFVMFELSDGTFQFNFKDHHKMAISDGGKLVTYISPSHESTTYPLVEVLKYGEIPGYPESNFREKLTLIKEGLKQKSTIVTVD

B1: Exo1-Flag (recombinant, untreated) (natural protein, yeast, UniProt P39875 1-702, looked up)
chain: MGIQGLLPQLKPIQNPVSLRRYEGEVLAIDGYAWLHRAACSCAYELAMGKPTDKYLQFFIKRFSLLKTFKVEPYLVFDGDAIPVKKSTESKRRDKRKENKAIAERLWACGEKKNAMDYFQKCVDITPEMAKCIICYCKLNGIRYIVAPFEADSQMVYLEQKNIVQGIISEDSDLLVFGCRRLITKLNDYGECLEICRDNFIKLPKKFPLGSLTNEEIITMVCLSGCDYTNGIPKVGLITAMKLVRRFNTIERIILSIQREGKLMIPDTYINEYEAAVLAFQFQRVFCPIRKKIVSLNEIPLYLKDTESKRKRLYACIGFVIHRETQKKQIVHFDDDIDHHLHLKIAQGDLNPYDFHQPLANREHKLQLASKSNIEFGKTNTTNSEAKVKPIESFFQKMTKLDHNPKVANNIHSLRQAEDKLTMAIKRRKLSNANVVQETLKDTRSKFFNKPSMTVVENFKEKGDSIQDFKEDTNSQSLEEPVSESQLSTQIPSSFITTNLEDDDNLSEEVSEVVSDIEEDRKNSEGKTIGNEIYNTDDDGDGDTSEDYSETAESRVPTSSTTSFPGSSQRSISGCTKVLQKFRYSSSFSGVNANRQPLFPRHVNQKSRGMVYVNQNRDDDCDDNDGKNQITQRPSLRKSLIGARSQRIVIDMKSVDERKSFNSSPILHEESKKRDIETTKSSQARPAVRSISLLSQFVYKGK
B2: Exo1-Flag (recombinant, treated with lambda phosphatase) (natural protein, yeast, UniProt P39875 1-702, looked up)
chain: MGIQGLLPQLKPIQNPVSLRRYEGEVLAIDGYAWLHRAACSCAYELAMGKPTDKYLQFFIKRFSLLKTFKVEPYLVFDGDAIPVKKSTESKRRDKRKENKAIAERLWACGEKKNAMDYFQKCVDITPEMAKCIICYCKLNGIRYIVAPFEADSQMVYLEQKNIVQGIISEDSDLLVFGCRRLITKLNDYGECLEICRDNFIKLPKKFPLGSLTNEEIITMVCLSGCDYTNGIPKVGLITAMKLVRRFNTIERIILSIQREGKLMIPDTYINEYEAAVLAFQFQRVFCPIRKKIVSLNEIPLYLKDTESKRKRLYACIGFVIHRETQKKQIVHFDDDIDHHLHLKIAQGDLNPYDFHQPLANREHKLQLASKSNIEFGKTNTTNSEAKVKPIESFFQKMTKLDHNPKVANNIHSLRQAEDKLTMAIKRRKLSNANVVQETLKDTRSKFFNKPSMTVVENFKEKGDSIQDFKEDTNSQSLEEPVSESQLSTQIPSSFITTNLEDDDNLSEEVSEVVSDIEEDRKNSEGKTIGNEIYNTDDDGDGDTSEDYSETAESRVPTSSTTSFPGSSQRSISGCTKVLQKFRYSSSFSGVNANRQPLFPRHVNQKSRGMVYVNQNRDDDCDDNDGKNQITQRPSLRKSLIGARSQRIVIDMKSVDERKSFNSSPILHEESKKRDIETTKSSQARPAVRSISLLSQFVYKGK
modifications: dephosphorylated with lambda phosphatase
B3: Exo1-Flag (recombinant, treated with CDK1-cyclin B) (natural protein, yeast, UniProt P39875 1-702, looked up)
chain: MGIQGLLPQLKPIQNPVSLRRYEGEVLAIDGYAWLHRAACSCAYELAMGKPTDKYLQFFIKRFSLLKTFKVEPYLVFDGDAIPVKKSTESKRRDKRKENKAIAERLWACGEKKNAMDYFQKCVDITPEMAKCIICYCKLNGIRYIVAPFEADSQMVYLEQKNIVQGIISEDSDLLVFGCRRLITKLNDYGECLEICRDNFIKLPKKFPLGSLTNEEIITMVCLSGCDYTNGIPKVGLITAMKLVRRFNTIERIILSIQREGKLMIPDTYINEYEAAVLAFQFQRVFCPIRKKIVSLNEIPLYLKDTESKRKRLYACIGFVIHRETQKKQIVHFDDDIDHHLHLKIAQGDLNPYDFHQPLANREHKLQLASKSNIEFGKTNTTNSEAKVKPIESFFQKMTKLDHNPKVANNIHSLRQAEDKLTMAIKRRKLSNANVVQETLKDTRSKFFNKPSMTVVENFKEKGDSIQDFKEDTNSQSLEEPVSESQLSTQIPSSFITTNLEDDDNLSEEVSEVVSDIEEDRKNSEGKTIGNEIYNTDDDGDGDTSEDYSETAESRVPTSSTTSFPGSSQRSISGCTKVLQKFRYSSSFSGVNANRQPLFPRHVNQKSRGMVYVNQNRDDDCDDNDGKNQITQRPSLRKSLIGARSQRIVIDMKSVDERKSFNSSPILHEESKKRDIETTKSSQARPAVRSISLLSQFVYKGK
modifications: phosphorylated in vitro with CDK1-cyclin B; sites not stated

This assay addresses T1, His-MBP-Cdc5 T238D. Description: pull-down.
For the molecule B1, the binding result is on record as “binds”. In the case of B2, the binding result was “binds”. Regarding B3, the binding result was “binds”.

Values taken from article doi:10.1101/2019.12.16.876623 (bioRxiv, 2019).
